Source: the RNAGym collection of RNA variant scans (doi:10.7554/elife.80360)

B1: CPEB3 Ribozyme (parent)
chain: GGGGGCCACAGCAGAAGCGUUCACGUCGCGGCCCCUGUCAGAUUCUGGUGAAUCUGCGAAUUCUGCUGU

Variants of: B1
Experiment: self-cleavage, relative activity (ratio to wild type); higher = more cleavage; co-transcriptional

Variant | self-cleavage
G1C U43C | 0.245
G1C U43A | 0.202
G1C G3U | 0.0766
G1C G3A | 0.174
G1C C29U | 0.105
G1C C29G | 0.106
G1C G11C | 0.165
G1C G11A | 0.14
G1C G11U | 0.164
G1A G4C | 0.0471
G1A G4A | 0.28
G1C A23G | 0.149
G1C A23C | 0.25
G1C A23U | 0.222
G1U C33A | 0.176
G1C A15C | 0.266
G1C A15G | 0.228
G1A A8U | 0.0637
G1C U20C | 0.098
G1C U20G | 0.131
G1A G50U | 0.0729
G1A G50A | 0.114
G1C C6U | 0.282
G1C C6G | 0.658

Variant | self-cleavage
G1C C6A | 0.26
G1C A16G | 0.254
G1C A16U | 0.159
G1A A10C | 0.117
G1C U62A | 0.279
G1C U62G | 0.177
G1U C22U | 0.102
G1U C22A | 0.0628
G1U C22G | 0.0638
G1C C7G | 0.128
G1C C7A | 0.144
G1A C24A | 0.0536
G1A C24U | 0.0626
G1A C24G | 0.163
G1A G3C | 0.0286
G1A A52G | 0.0619
G1A A52U | 0.0595
G1A A52C | 0.113
G1A U49G | 0.13
G1A U49A | 0.075
G1U A42C | 0.0921
G1U A42U | 0.0891
G1U A42G | 0.0976
G1C G48U | 0.241

Variant | self-cleavage
G1C G47U | 0.268
G1C G47C | 0.213
G1C G47A | 0.242
G1A A13C | 0.0638
G1A A13U | 0.0681
G1A A13G | 0.0336
G1C G68U | 0.297
G1C G68C | 0.219
G1C G68A | 0.304
G1U A15C | 0.136
G1U A15G | 0.191
G1C A13G | 0.183
G1C A13U | 0.155
G1C A13C | 0.143
G1C G41C | 0.23
G1C G41A | 0.19
G1C A52G | 0.24
G1C A52C | 0.2
G1C A52U | 0.201
G1U C24G | 0.0268
G1A C54G | 0.0801
G1A C54A | 0.0906
G1U A23U | 0.108
G1U A40C | 0.0668

Variant | self-cleavage
G1C G31C | 0.0643
G1C G31U | 0.266
G1C G31A | 0.272
G1A G28C | 0.0192
G1A G28U | 0.0362
G1A G14C | 0.0574
G1A G14A | 0.0754
G1A C18A | 0.0308
G1A C18U | 0.0601
G1A C18G | 0.0371
G1U C9U | 0.219
G1U C9G | 0.233
G1C A51U | 0.192
G1C A51C | 0.149
G1C G37U | 0.101
G1C G37C | 0.125
G1U C6G | 0.126
G1U C6U | 0.0906
G1U C6A | 0.0884
G1C G5U | 0.114
G1A U21G | 0.0454
G1A U21A | 0.132
G1C A42G | 0.152
G1C A42C | 0.274

Variant | self-cleavage
G1C C33A | 0.197
G1C C33U | 0.282
G1C C33G | 0.118
G1U C27G | 0.0589
G1U C27A | 0.0657
G1C C12G | 0.238
G1C C12U | 0.252
G1C C12A | 0.164
G1C C32U | 0.327
G1C C32A | 0.279
G1C A8C | 0.221
G1C A8U | 0.227
G1A C9G | 0.0894
G1A C9A | 0.145
G1A C9U | 0.19
G1A G31A | 0.0627
G1A G31C | 0.0308
G1C U49G | 0.275
G1C U49C | 0.116
G1A U64G | 0.0694
G1A U64A | 0.134
G1C G19A | 0.086
G1C U55A | 0.189
G1C U55C | 0.167

Variant | self-cleavage
G1C G28C | 0.12
G1C G28U | 0.0985
G1U C12U | 0.124
G1U C12G | 0.106
G1A C12A | 0.0768
G1A C12G | 0.0843
G1A C34U | 0.0949
G1A C34A | 0.111
G1A C34G | 0.0238
G1A G37C | 0.0318
G1A G37U | 0.104
G1C G25U | 0.0853
G1C G25C | 0.103
G1C G25A | 0.0736
G1A A59C | 0.0603
G1A A59U | 0.0722
G1A A59G | 0.167
G1C G2A | 0.408
G1A G56U | 0.103
G1A G56A | 0.0858
G1A G56C | 0.0841
G1A U62A | 0.0846
G1A G5U | 0.0571
G1A G5A | 0.15

Variant | self-cleavage
G1A G5C | 0.0678
G1U C54A | 0.116
G1U C54G | 0.099
G1U C35A | 0.0801
G1U C35U | 0.113
G1C U53G | 0.232
G1C U53A | 0.225
G1C U64C | 0.179
G1C U64A | 0.236
G1A U55C | 0.0976
G1A U55A | 0.059
G1U C57G | 0.0901
G1C A59C | 0.27
G1C A59U | 0.147
G1C A59G | 0.26
G1C G14A | 0.152
G1C G14U | 0.164
G1A C27U | 0.0438
G1A C27A | 0.0748
G1C C9G | 0.203
G1C C9U | 0.246
G1C U61C | 0.141
G1C U61G | 0.271
